# Source: patent US20060257938A1, “Method of screening for drugs that block ligand binding to a lipid binding protein” (priority 2005, published 2006)
# Tests used:
# Type in all cases: binding
# [1] = Probe fluorescence ratio response to linoleic acid relative to ADIFAB2; details: response relative to ADIFAB2
# Method in brief: (§1)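 Each fatty acid's response was expressed relative to ADIFAB2, the rI-FABP-L72A probe, as ΔR/ΔRreference. ΔR is the change in the background-corrected two-wavelength intensity ratio R=Fλ1/Fλ2 from its analyte-free baseline R0. Emission was read near about 420-480 nm for unbound and about 495-580 nm for FFA-bound probe.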
# [2] = Probe fluorescence ratio response to palmitic acid relative to ADIFAB2; details: response relative to ADIFAB2
# Method in brief: as §1
# [3] = Probe fluorescence ratio response to palmitoleic acid relative to ADIFAB2; details: response relative to ADIFAB2
# Method in brief: as §1
# [4] = Probe fluorescence ratio response to arachidonic acid relative to ADIFAB2; details: arachidonic acid; response relative to ADIFAB2
# Method in brief: as §1
# [5] = Probe fluorescence ratio response to stearic acid relative to ADIFAB2; details: response relative to ADIFAB2
# Method in brief: as §1
# [6] = Probe fluorescence ratio response to linolenic acid relative to ADIFAB2; details: response relative to ADIFAB2
# Method in brief: as §1
# [7] = Probe fluorescence ratio response to oleic acid relative to ADIFAB2; details: response relative to ADIFAB2
# Method in brief: as §1
molecule,measurement,setting,value
"73T 72A 74F (protein, listed as Rattus norvegicus, PEPTIDE (1)...(131) wild-type rat intestinal fatty acid binding protein) AFDGTWKVDRNENYEKFMEKMGINVVKRKLGAHDNLKLTITQEGNKFTVKESSNFRNIDVVFELGVDFAYSATFGTELTGTWTMEGNKLVGKFKRVDNGKELIAVREISGNELIQTYTYEGVEAKRIFKKE",DR/DR LA,[1],1.389
same,DR/DR PA,[2],1.632
same,DR/DR POA,[3],2.450
same,DR/DR AA,[4],0.939
same,DR/DR SA,[5],0.519
same,DR/DR LNA,[6],1.661
same,DR/DR OA,[7],1.161
"72G 73F 74N (protein, listed as Rattus norvegicus, PEPTIDE (1)...(131) wild-type rat intestinal fatty acid binding protein) AFDGTWKVDRNENYEKFMEKMGINVVKRKLGAHDNLKLTITQEGNKFTVKESSNFRNIDVVFELGVDFAYSGFNGTELTGTWTMEGNKLVGKFKRVDNGKELIAVREISGNELIQTYTYEGVEAKRIFKKE",DR/DR LA,[1],0.454
same,DR/DR PA,[2],0.456
same,DR/DR POA,[3],1.499
same,DR/DR AA,[4],0.617
same,DR/DR SA,[5],−0.043
same,DR/DR LNA,[6],1.367
same,DR/DR OA,[7],−0.032
"74T 72A 73F (protein, listed as Rattus norvegicus, PEPTIDE (1)...(131) wild-type rat intestinal fatty acid binding protein) AFDGTWKVDRNENYEKFMEKMGINVVKRKLGAHDNLKLTITQEGNKFTVKESSNFRNIDVVFELGVDFAYSAFTGTELTGTWTMEGNKLVGKFKRVDNGKELIAVREISGNELIQTYTYEGVEAKRIFKKE",DR/DR LA,[1],1.185
same,DR/DR PA,[2],1.150
same,DR/DR POA,[3],2.309
same,DR/DR AA,[4],0.852
same,DR/DR SA,[5],0.273
same,DR/DR LNA,[6],1.635
same,DR/DR OA,[7],0.634
"55V 73F 72A (protein, listed as Rattus norvegicus, PEPTIDE (1)...(131) wild-type rat intestinal fatty acid binding protein) AFDGTWKVDRNENYEKFMEKMGINVVKRKLGAHDNLKLTITQEGNKFTVKESSNVRNIDVVFELGVDFAYSAFDGTELTGTWTMEGNKLVGKFKRVDNGKELIAVREISGNELIQTYTYEGVEAKRIFKKE",DR/DR LA,[1],1.223
same,DR/DR PA,[2],1.082
same,DR/DR POA,[3],2.264
same,DR/DR AA,[4],0.864
same,DR/DR SA,[5],0.285
same,DR/DR LNA,[6],1.566
same,DR/DR OA,[7],0.661
"72S 73Q 74A (protein, listed as Rattus norvegicus, PEPTIDE (1)...(131) wild-type rat intestinal fatty acid binding protein) AFDGTWKVDRNENYEKFMEKMGINVVKRKLGAHDNLKLTITQEGNKFTVKESSNFRNIDVVFELGVDFAYSSQAGTELTGTWTMEGNKLVGKFKRVDNGKELIAVREISGNELIQTYTYEGVEAKRIFKKE",DR/DR LA,[1],2.140
same,DR/DR PA,[2],1.896
same,DR/DR POA,[3],2.293
same,DR/DR AA,[4],2.290
same,DR/DR SA,[5],1.311
same,DR/DR LNA,[6],2.077
same,DR/DR OA,[7],1.875
"38I 74F 72A (protein, listed as Rattus norvegicus, PEPTIDE (1)...(131) wild-type rat intestinal fatty acid binding protein) AFDGTWKVDRNENYEKFMEKMGINVVKRKLGAHDNLKITITQEGNKFTVKESSNFRNIDVVFELGVDFAYSAAFGTELTGTWTMEGNKLVGKFKRVDNGKELIAVREISGNELIQTYTYEGVEAKRIFKKE",DR/DR LA,[1],1.162
same,DR/DR PA,[2],1.343
same,DR/DR POA,[3],2.112
same,DR/DR AA,[4],0.787
same,DR/DR SA,[5],0.503
same,DR/DR LNA,[6],1.395
same,DR/DR OA,[7],0.764
"73P 72A 74F (protein, listed as Rattus norvegicus, PEPTIDE (1)...(131) wild-type rat intestinal fatty acid binding protein) AFDGTWKVDRNENYEKFMEKMGINVVKRKLGAHDNLKLTITQEGNKFTVKESSNFRNIDVVFELGVDFAYSAPFGTELTGTWTMEGNKLVGKFKRVDNGKELIAVREISGNELIQTYTYEGVEAKRIFKKE",DR/DR LA,[1],0.838
same,DR/DR PA,[2],1.278
same,DR/DR POA,[3],1.776
same,DR/DR AA,[4],1.078
same,DR/DR SA,[5],0.494
same,DR/DR LNA,[6],1.518
same,DR/DR OA,[7],0.868
"74S 72A 73F (protein, listed as Rattus norvegicus, PEPTIDE (1)...(131) wild-type rat intestinal fatty acid binding protein) AFDGTWKVDRNENYEKFMEKMGINVVKRKLGAHDNLKLTITQEGNKFTVKESSNFRNIDVVFELGVDFAYSAFSGTELTGTWTMEGNKLVGKFKRVDNGKELIAVREISGNELIQTYTYEGVEAKRIFKKE",DR/DR LA,[1],1.035
same,DR/DR PA,[2],1.158
same,DR/DR POA,[3],2.413
same,DR/DR AA,[4],0.893
same,DR/DR SA,[5],0.337
same,DR/DR LNA,[6],1.433
same,DR/DR OA,[7],0.630
"18V 31F 73M 72A (protein, listed as Rattus norvegicus, PEPTIDE (1)...(131) wild-type rat intestinal fatty acid binding protein) AFDGTWKVDRNENYEKFVEKMGINVVKRKLFAHDNLKLTITQEGNKFTVKESSNFRNIDVVFELGVDFAYSAMDGTELTGTWTMEGNKLVGKFKRVDNGKELIAVREISGNELIQTYTYEGVEAKRIFKKE",DR/DR LA,[1],1.296
same,DR/DR PA,[2],1.395
same,DR/DR POA,[3],1.538
same,DR/DR AA,[4],1.014
same,DR/DR SA,[5],0.383
same,DR/DR LNA,[6],1.511
same,DR/DR OA,[7],0.794
"74E 72A 73F (protein, listed as Rattus norvegicus, PEPTIDE (1)...(131) wild-type rat intestinal fatty acid binding protein) AFDGTWKVDRNENYEKFMEKMGINVVKRKLGAHDNLKLTITQEGNKFTVKESSNFRNIDVVFELGVDFAYSAFEGTELTGTWTMEGNKLVGKFKRVDNGKELIAVREISGNELIQTYTYEGVEAKRIFKKE",DR/DR LA,[1],1.093
same,DR/DR PA,[2],1.026
same,DR/DR POA,[3],2.395
same,DR/DR AA,[4],0.703
same,DR/DR SA,[5],0.251
same,DR/DR LNA,[6],1.558
same,DR/DR OA,[7],0.575
